Results published in patent US7592168B2, “Cephalosporin C acylase mutant and method for preparing 7-ACA using same” (Sandoz AG, priority 2003, dated 2009).

How the values were obtained:
[1] = End-product inhibition by 7-ACA; format: biochemical; details: same active unit of enzyme
Protocol: The enzyme activity of CPC acylase mutant to CPC was measured according to the method described by Park et al. with minor modifications as follows (Park, et al., Kor. J. Appl. Microbiol. Biotechnol. 23: 559-564, 1995). A substrate solution was prepared by dissolving CPC (purity 74.2%; CJ Corp., Korea) in 0.1 M Tris-HCl buffer solution (pH 8.0) at a concentration of 20 mg/ml and adjusting pH to 8 with 1 N NaOH. 20 μl of the CPC solution was mixed with 20 μl of the crude enzyme solution prepared above and the reaction mixture was incubated at 37° C. for 5 min. After the reaction, the mixture (200 μl) of 50 mM NaOH and 20% glacial acetic acid (1:2) was added thereto to stop the reaction. 200 μl of the supernatant recovered from the reaction mixture by centrifugation was mixed with 40 μl of 0.5% (w/v) PDAB (p-dimethylaminobenzaldehyde; Sigma, USA) dissolved in a methanol and the reaction mixture was incubated at 37° C. for 10 min. After the reaction, the absorbance of reaction mixture was measured at 415 nm and quantified by comparing with a calibration curve of standard material. […] Meanwhile, the specific activity of CPC acylase mutant for CPC was determined by measuring the amount of protein remaining in the enzyme solution according to the method described by Bradford (Bradford, M., Anal. Biochem. 72: 248-254, 1976) and representing it as an active unit corresponding to 1 mg of protein. […]

[2] = Productivity of CPC acylase mutant, pET29 plasmids in E. coli BL21(DE3) with lactose; details: pET29-S12, E. coli BL21(DE3), 2% lactose, 25° C., 72 hr
Protocol: Each of pET29-TnS5αβ and pET29-S12 plasmids was transformed into E. coli BL21(DE3) by electrophoration to prepare the recombinant E. coli containing pET29-TnS5αβ and pET29-S12 plasmid, respectively, and the productivity of sixfold CPC acylase mutant in each recombinant E. coli was measured The TnS5αβ and S12 CPC acylase mutant gene in these recombinant plasmids was transcribed by the action of T7 promoter which is under the control of LacI operator existed on pET29-a(+) vector.
The recombinant E. coli containing pET-TnS5αβ plasmid was inoculated in […] of a LB broth containing 20 μg/ml of kanamycin and cultivated at 30° C., 200 rpm for 16 hr with vigorous shaking. […] The activity of sixfold CPC acylase mutant to CPC was measured using said crude enzyme solution according to the same method as described in Example <1-1-2>.
Further, the productivity of CPC acylase by S12 mutant enzyme in the E. coli BL21(DE3) transformant containing pET29-S12 recombinant plasmid was measured according to the same method as described above except that […] of a LB broth containing 20 μg/ml of kanamycin and 2% lactose was employed for a main cultivation and the E. coli transformant was cultured at 25° C., 200 rpm for 72 hr with vigorous shaking. […]

[3] = Optimal reaction temperature and pH to CPC; format: biochemical; details: purified mutant enzyme
Protocol: Further, as a result of examining the optimal reaction temperature and pH of the wild-type CPC acylase AcyII, the optimal reaction temperature and pH to CPC were 40° C. and 9.0, respectively.

B1: S12: sixfold CPC acylase mutant, α-subunit SEQ ID NO: 7 and β-subunit SEQ ID NO: 8 (protein)
alpha: TMAAKTDREALQAALPPLSGSLSIPGLSAPVRVQRDGWGIPHIKASGEADAYRALGFVHAQDRLFQMELTRRKALGRAAEWLGAEAAEADILVRRLGMEKVCRRDFEALGAEAKDMLRAYAAGVNAFLASGAPLPIEYSLLGAEPEPWEPWHSIAVMRRLGLLMGSVWFKLWRMLALPVVGAANALKLRYDDGGQDLLCIPPGVEAERLEADLAALRPAVDALLKAMGG
beta: SNNWAVAPGRTATGRPILAGDPHRVFEIPGMYAQHHLACDRFDMIGLTVPGVPGFPHNAHNGKVAYCVTHAFMDTHDLYLEQFAEDGRTARFGNEFEPVAWRRDRIAVRGGADREFDIVETRHGPVIAGDPLEGAALTLRSVQFAETDLSFDCLTRMPGASTVAQLYDATRGWGLVDHNLVAGDVAGSIGHLVRARVPSRPRENGWLPVPGWSGEHEWRGWIPHEAMPRVIDPPGGLIVTANNRVVADDHPDYLCTDCHPPYRAERIMERLVASPAFAVDDAAAIHADTLSPHVGLLRARLEALGIQGSLPAEELRQTLIAWDGRMDAGSQAASAYNAFRRALTRLVTARSGLEQAIAHPFAAVPPGVSPQGQVWWAVPTLLRNDDAGMLKGWSWDEALSEALSVATQNLTGRGWGEEHRPRFTHPLSAQFPAWAALLNPVSRPIGGDGDTVLANGLVPSAGPEATYGALCRYVFDVGNWDNSRWVVFHGASGHPASPHYADQNAPWSDCAMVPMLYSWDRIAAEAVTSQELVPA
modifications: alpha-subunit of mutatnt CPC acylase S12 protein; beta-subunit of mutatnt CPC acylase S12 protein
[1]
  end-product inhibition by 7-ACA (in words): significantly decreased as compared with that of the wild-type enzyme
[2]
  productivity of CPC acylase mutant: 1,207 unit/l
[3]
  reaction feature (e.g., optimal temperature and pH) compared with wild-type: the same as the wild-type CPC acylase
